Experimental data reported in the Human Domainome abundance scans (Beltran et al. 2025).
± gives the uncertainty stated by the source.

B1: Apoptosis-associated speck-like protein containing a CARD, residues 114 to 194; numbered along this chain, Q9ULZ3 (parent)
chain: FIDQHRAALIARVTNVEWLLDALYGKVLTDEQYQAVRAEPTNPSKMRKLFSFTPAWNWTCKDLLLQALRESQSYLVEDLER

Variants of: B1
Experiment: abundance fitness (aPCA) (normalised: wild type 0, dead -1); higher = more abundant; growth selection in yeast, the domain comes from the species named
Settings: Homo sapiens

Row | Variant | abundance fitness
1 | N15M | -0.847 ± 0.17
2 | N15V | -0.947 ± 0.14
3 | N15R | -0.359 ± 0.06
4 | N15F | -0.997 ± 0.3
5 | N15L | -0.796 ± 0.15
6 | N15W | -0.605 ± 0.17
7 | N15P | -0.806 ± 0.14
8 | N15I | -0.857 ± 0.25
9 | N15G | -0.604 ± 0.058
10 | N15A | -0.718 ± 0.077
11 | N15E | -0.188 ± 0.064
12 | N15K | -0.041 ± 0.09
13 | N15C | -0.718 ± 0.14
14 | N15H | -0.291 ± 0.11
15 | N15Y | -0.555 ± 0.2
16 | N15T | -0.518 ± 0.099
17 | N15D | -0.142 ± 0.068
18 | A11R | -0.038 ± 0.45
19 | A11E | -0.115 ± 0.41
20 | L9M | -0.563 ± 0.14
21 | L9P | -0.694 ± 0.14
22 | L9D | -0.798 ± 0.25
23 | L9I | -0.429 ± 0.12
24 | L9S | -0.938 ± 0.15

Row | Variant | abundance fitness
25 | L9N | -0.776 ± 0.35
26 | L9G | -0.624 ± 0.067
27 | L9E | -0.76 ± 0.17
28 | L9W | -0.811 ± 0.11
29 | L9R | -0.925 ± 0.13
30 | L9V | -0.989 ± 0.13
31 | L9Y | -0.644 ± 0.28
32 | L9H | -0.749 ± 0.18
33 | L9Q | -1.03 ± 0.27
34 | L9K | -0.948 ± 0.25
35 | L9C | -0.558 ± 0.075
36 | L9F | -0.763 ± 0.2
37 | L9A | -0.901 ± 0.12
38 | V13C | 0.023 ± 0.068
39 | V13L | -0.632 ± 0.076
40 | V13K | -0.899 ± 0.2
41 | V13M | -0.611 ± 0.11
42 | V13Q | -0.775 ± 0.14
43 | V13Y | -0.729 ± 0.24
44 | V13D | -0.688 ± 0.14
45 | V13G | -0.598 ± 0.042
46 | V13F | -0.495 ± 0.15
47 | V13S | -0.535 ± 0.067
48 | V13A | -0.039 ± 0.061

Row | Variant | abundance fitness
49 | V13H | -0.878 ± 0.26
50 | V13W | -0.893 ± 0.12
51 | V13R | -0.851 ± 0.085
52 | V13N | -0.861 ± 0.25
53 | V13E | -0.538 ± 0.11
54 | V13P | -0.396 ± 0.12
55 | A8Q | -0.078 ± 0.063
56 | A8L | -0.79 ± 0.13
57 | A8N | -0.558 ± 0.39
58 | A8S | -0.112 ± 0.052
59 | A8Y | -0.193 ± 0.12
60 | A8H | -0.375 ± 0.11
61 | A8F | -0.673 ± 0.18
62 | A8C | -0.312 ± 0.097
63 | A8P | -0.945 ± 0.16
64 | A8V | -0.424 ± 0.11
65 | A8K | -0.521 ± 0.13
66 | A8W | -0.776 ± 0.11
67 | A8G | -0.577 ± 0.059
68 | A8T | -0.239 ± 0.069
69 | A8I | -0.225 ± 0.2
70 | A8M | -0.372 ± 0.12
71 | A8E | 0.2 ± 0.072
72 | E17C | -0.867 ± 0.21

Row | Variant | abundance fitness
73 | E17N | -0.286 ± 0.17
74 | E17M | -0.49 ± 0.061
75 | E17G | -0.357 ± 0.044
76 | E17P | -0.705 ± 0.084
77 | E17A | -0.619 ± 0.067
78 | E17D | 0.019 ± 0.1
79 | E17H | -0.695 ± 0.17
80 | E17R | -0.642 ± 0.07
81 | E17F | -0.97 ± 0.5
82 | E17L | -0.859 ± 0.12
83 | E17Q | -0.083 ± 0.076
84 | E17S | -0.536 ± 0.06
85 | A7Y | -0.54 ± 0.36
86 | A7V | -0.249 ± 0.058
87 | A7K | -0.035 ± 0.1
88 | A7F | -0.652 ± 0.16
89 | A7G | -0.152 ± 0.044
90 | A7T | -0.277 ± 0.11
91 | A7R | -0.119 ± 0.045
92 | A7N | 0.002 ± 0.13
93 | A7Q | 0.045 ± 0.084
94 | A7L | -0.461 ± 0.068
95 | A7H | -0.149 ± 0.11
96 | A7S | -0.014 ± 0.054

Row | Variant | abundance fitness
97 | A7M | -0.251 ± 0.078
98 | A7I | -0.638 ± 0.3
99 | A7P | -0.437 ± 0.09
100 | I10T | -0.515 ± 0.092
101 | I10D | -0.658 ± 0.15
102 | I10W | -0.793 ± 0.11
103 | I10G | -0.74 ± 0.076
104 | I10E | -0.594 ± 0.066
105 | I10Q | -0.655 ± 0.15
106 | I10N | -0.745 ± 0.29
107 | I10S | -0.977 ± 0.15
108 | I10Y | -0.54 ± 0.2
109 | I10F | -0.84 ± 0.17
110 | I10A | -0.714 ± 0.097
111 | I10H | -0.769 ± 0.27
112 | I10M | -0.489 ± 0.11
113 | I10R | -0.631 ± 0.064
114 | I10C | -0.628 ± 0.16
115 | I10P | -0.985 ± 0.25
116 | R12I | -0.803 ± 0.38
117 | R12T | -0.746 ± 0.13
118 | R12Y | -0.484 ± 0.13
119 | R12P | -0.964 ± 0.18
120 | R12M | -0.628 ± 0.11

Row | Variant | abundance fitness
121 | R12G | -0.17 ± 0.034
122 | R12A | -0.707 ± 0.092
123 | R12E | -0.316 ± 0.07
124 | R12Q | -0.152 ± 0.091
125 | R12W | -1.18 ± 0.29
126 | R12F | -0.655 ± 0.21
127 | R12C | -0.361 ± 0.15
128 | R12N | -0.14 ± 0.16
129 | R12D | -0.666 ± 0.26
130 | R12S | -0.462 ± 0.085
131 | R12L | -0.948 ± 0.13
132 | R12K | -0.228 ± 0.095
133 | R12H | -0.219 ± 0.12
134 | T14D | -0.058 ± 0.098
135 | T14A | -0.4 ± 0.067
136 | T14K | -0.295 ± 0.17
137 | T14G | -0.265 ± 0.058
138 | T14S | -0.045 ± 0.052
139 | T14P | -0.815 ± 0.13
140 | T14H | -0.644 ± 0.22
141 | T14E | -0.004 ± 0.078
142 | T14I | -0.541 ± 0.17
143 | T14L | -0.571 ± 0.09
144 | T14F | -0.749 ± 0.17

Row | Variant | abundance fitness
145 | T14C | -0.656 ± 0.18
146 | T14R | -0.209 ± 0.053
147 | T14Y | -0.54 ± 0.17
148 | T14W | -0.864 ± 0.16
149 | T14M | -0.607 ± 0.19
150 | T14N | -0.206 ± 0.15
151 | T14Q | -0.252 ± 0.12
152 | V16R | -0.573 ± 0.057
153 | V16P | -0.35 ± 0.068
154 | V16W | -0.533 ± 0.084
155 | V16I | -0.464 ± 0.12
156 | V16G | -0.88 ± 0.087
157 | V16D | -0.773 ± 0.11
158 | V16S | -0.846 ± 0.1
159 | V16C | -0.342 ± 0.16
160 | V16Y | -1.02 ± 0.42
161 | V16L | -0.484 ± 0.078
162 | V16E | -0.928 ± 0.17
163 | V16F | -0.941 ± 0.26
164 | V16Q | -0.865 ± 0.15
165 | V16H | -0.821 ± 0.22
166 | V16A | -0.794 ± 0.1
167 | V16T | -0.572 ± 0.095
